T1: COPB2_(1–304), N-terminal WD repeat of COPB2 (S. cerevisiae, UniProt P41811 1-304)
T1 chain: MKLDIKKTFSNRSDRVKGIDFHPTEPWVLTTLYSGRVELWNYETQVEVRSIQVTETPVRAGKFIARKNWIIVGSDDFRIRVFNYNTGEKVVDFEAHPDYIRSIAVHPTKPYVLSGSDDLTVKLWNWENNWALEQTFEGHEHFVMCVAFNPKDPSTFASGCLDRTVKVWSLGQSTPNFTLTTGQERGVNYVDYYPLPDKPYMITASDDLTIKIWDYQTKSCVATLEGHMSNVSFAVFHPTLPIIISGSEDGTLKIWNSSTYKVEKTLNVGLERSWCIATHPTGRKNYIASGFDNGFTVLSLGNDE

T2: COPB2_(1–304), N-terminal WD repeat of COPB2 (S. cerevisiae, UniProt P41811 1-304)
T2 construct: COPB2 (coatomer beta'), residues 1-304, N-terminal WD repeat domain; residues are counted in 'Saccharomyces cerevisiae COPB2 numbering'; PDB 2YNN (COPB2 1-304) served as search model; codon-optimised synthetic gene; also called WD-repeat domain of COPB2; source: E. coli BL21(DE3), purified (Ni-NTA, tag cleavage, ion exchange, SEC); not shown: 6xHis-Sumo3, N-terminal, cleaved
T2 sequence (looked up): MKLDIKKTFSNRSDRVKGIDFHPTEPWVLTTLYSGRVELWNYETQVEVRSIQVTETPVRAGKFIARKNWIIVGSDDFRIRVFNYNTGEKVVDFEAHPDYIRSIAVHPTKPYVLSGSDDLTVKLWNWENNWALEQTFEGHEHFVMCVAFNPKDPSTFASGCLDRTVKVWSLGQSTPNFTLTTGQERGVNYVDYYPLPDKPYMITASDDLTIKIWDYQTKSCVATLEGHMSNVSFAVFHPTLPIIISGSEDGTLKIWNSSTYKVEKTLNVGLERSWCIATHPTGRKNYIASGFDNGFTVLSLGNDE


Key:
[1] = biological target: T1, COPB2_(1–304), N-terminal WD repeat of …; assay: ITC
[2] = biological target: T2, COPB2_(1–304), N-terminal WD repeat of …; assay: ITC; 450 μM of each peptide titrated into 20 μM COPB2 1-304; 25°C; 150 mM NaCl, 0.5 mM TCEP, 25 mM Hepes pH 7.5; one-site model; details: both partners purified

| Binder | Kd [1] [µM] | Kd [2] [µM] |
| --- | --- | --- |
| PVRASRNKRPTFLKIKAP [EBP peptide K256A] | 6 | – |
| PVRASRNKRPTFLAIKKP [EBP peptide K253A] | 47.2 | – |

Other lines, results leading:

| Kd [1] [µM] | Kd [2] [µM] | Binder |
| --- | --- | --- |
| – | 11.6 | PVRASRNKRPTFLKIKKP (also called 18–amino acid EBP polypeptide) [exosome-binding peptide (EBP), 18-amino acid polypeptide of Wnt7a (240-257)] |
| – | 37.2 | LKIKKP (also called C-terminal half of the polypeptide) [Wnt_(252–257) peptide (LKIKKP)] |

From article PMC11633749, “Identification of the Wnt signal peptide that directs secretion on extracellular vesicles” (Science Advances, 2024)
